The results in this text go back to patent US20260092093A1 (TJ BIOPHARMA SHANGHAI, published 2026).

The chains are these.
B1: IL-18 variant polypeptide M32 (ligand)
chain: YFPKLGSKLSVIRNLNDQVLFIDQGNRPLFEDMTDSDCRDNAPRTIFIISMYKSSSRRGMAVTISVKCEKISTLSCENKIISFKEMNPPDNIKDTKSDIIFFQRSVPGHDNKMQFESSSYEGYFLACEKERDLFKLILKKEDELGDRSIMFTVQNED
B2: IL-18 variant polypeptide M38 (ligand)
chain: B1 chain with G6S, S54W, S56G, R57A, N91V, R104I
B3: IL-18 variant polypeptide M39 (ligand)
chain: B1 chain with G6R, S54W, S56P, R57G, N91V, R104L
B4: IL-18 variant polypeptide M37 (ligand)
chain: B1 chain with S54Q, S56V, R57W
B5: IL-18 variant polypeptide M33 (ligand)
chain: B1 chain with P3E, G6H, S54R, S56T, R57H
B6: IL-18 variant polypeptide M40 (ligand)
chain: B1 chain with P3D, G6K, S54P, R57W, N91W
B7: IL-18 variant polypeptide M31 (ligand)
chain: B1 chain with G6R, S54H, S56I, R57H, N91I, R104Y
B8: IL-18 variant polypeptide M35 (ligand)
chain: B1 chain with G6R, S54G, S56G, R57A, N91G
B9: IL-18 variant polypeptide M34 (ligand)
chain: B1 chain with G6R, S54H, S56R, R57N, N91V, R104E
B10: IL-18 variant polypeptide M27 (ligand)
chain: B1 chain with G6R, S54H, S56Y, R57T, N91V, R104Y
B11: IL-18 variant polypeptide M40 (ligand)
chain: B1 chain with P3D, G6K, S54P, R57W, N91W
B12: IL-18 variant polypeptide M38 (ligand)
chain: B1 chain with G6S, S54W, S56G, R57A, N91V, R104I
B13: IL-18 variant polypeptide LM3 (ligand)
chain: B1 chain with G6R, V11I, S54G, S56G, R57A, N91G
B14: IL-18 variant polypeptide M30 (ligand)
chain: B1 chain with G6L, S54H, S56T, R57V, N91S
B15: IL-18 variant polypeptide LM2 (ligand)
chain: B1 chain with G6R, S54L, S56G, R57S, N91V
B16: IL-18 variant polypeptide M37 (ligand)
chain: B1 chain with S54Q, S56V, R57W
B17: IL-18 variant polypeptide M28 (ligand)
chain: B1 chain with G6A, S54W, S56G, R57G, N91V, R104Y
B18: IL-18 variant polypeptide M34 (ligand)
chain: B1 chain with G6R, S54H, S56R, R57N, N91V, R104E
B19: IL-18 variant polypeptide LM1 (ligand)
chain: B1 chain with G6K, S54G, S56G, R57A
B20: IL-18 variant polypeptide M39 (ligand)
chain: B1 chain with G6R, S54W, S56P, R57G, N91V, R104L
B21: IL-18 variant polypeptide M31 (ligand)
chain: B1 chain with G6R, S54H, S56I, R57H, N91I, R104Y

Substitutions are numbered along the chain they refer to.

In one assay the target is T1, recombinant hIL-18Rα extracellular domain (human, UniProt Q13478 22-329, biotin label (selection) or fluorescent probe (single-clone FACS), sites not given).
T1 construct: extracellular domain; also called hIL-18Rα ECD; hIL-18Rα-ECD
T1 sequence (looked up): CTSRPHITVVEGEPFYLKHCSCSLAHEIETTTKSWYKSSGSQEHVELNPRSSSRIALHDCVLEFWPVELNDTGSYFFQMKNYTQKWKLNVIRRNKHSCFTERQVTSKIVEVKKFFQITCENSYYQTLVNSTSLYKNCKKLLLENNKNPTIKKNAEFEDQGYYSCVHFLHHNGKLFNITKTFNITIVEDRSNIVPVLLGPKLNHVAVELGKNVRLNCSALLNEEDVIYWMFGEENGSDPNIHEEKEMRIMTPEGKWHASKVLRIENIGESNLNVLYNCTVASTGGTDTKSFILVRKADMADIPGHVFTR
Description: single-clone FACS, yeast display, 10 nM labelled hIL-18Rα ECD. Put shortly:
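Yeast clones displaying IL-18 variants (screening rounds 4 and 5), at equal density, incubated with 10 nM fluorescently labelled hIL-18Rα ECD, then washed. Fraction of fluorescence-positive binding cells per clone measured by flow cytometry.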
Turning to B1, the “% of fluorescence positive cells” value was determined as 4.21%.
In the case of B2, the “% of fluorescence positive cells” value was 79.5%.
Same read-out and setting: under B3 stands 76.5%; under B4, 95.4%; under B5, 0.17%.
B6: the “% of fluorescence positive cells” value was found to be 39.6%.
On to B7, for which the “% of fluorescence positive cells” value was determined as 69%.
On to B8, for which the “% of fluorescence positive cells” value is 92.9%.
On to B9, for which the “% of fluorescence positive cells” value stood at 87.5%.

For the next assay, the target named is T2, hIL-18Rα ECD-Fc fusion protein (human, UniProt Q13478 22-329).
T2 construct: extracellular domain; captured on Protein A sensor
T2 sequence (looked up): T1 sequence (looked up)
Description: BLI (Octet RED96), hIL-18Rα ECD-Fc on Protein A sensor. The procedure: The affinities of IL-18 variant polypeptides for hIL-18Rα were assessed by Biolayer Interferometry (BLI) on Octet RED96 using Protein A sensor coated with hIL-18Rα ECD-Fc fusion protein, and WT hIL-18 was used as a control.
A general note: In BLI a coated tip is dipped into the sample, and binding shifts an interference pattern.
One may read the Kd as the equilibrium constant for the complex coming apart. Low readings indicate a tighter complex, high ones a looser complex. A word on the koff: it is the rate constant with which the complex falls apart. A high value points to fast dissociation. The kon is the rate constant with which the complex forms. Read a low kon as slower complex formation. B1: binding was put at a Kd of 17.3 nM, the “Response (nm)” value was found to be 0.0381 nm, the koff amounted to 0.0234 s⁻¹ and the on-rate (kon) came to 1.36e+06 M⁻¹ s⁻¹.
Consider B2, for which binding was put at a Kd of 120 nM, the “Response (nm)” value was 0.0307 nm, the koff came out at 0.0334 s⁻¹ and the association rate constant (kon) was 278000 M⁻¹ s⁻¹.
As to B3, binding was characterised by a dissociation constant (Kd) of 20.6 nM, the “Response (nm)” value amounted to 0.0605 nm, the koff worked out at 0.0221 s⁻¹ and the association rate constant (kon) came out at 1.07e+06 M⁻¹ s⁻¹.
Turning to B4, binding was put at a Kd of 21.8 nM, the “Response (nm)” value stood at 0.222 nm, the koff was 0.00883 s⁻¹ and the kon turned out to be 404000 M⁻¹ s⁻¹.
As to B5, binding was characterised by a dissociation constant (Kd) of 595 nM, the “Response (nm)” value turned out to be 0.0257 nm, the dissociation rate constant (koff) amounted to 0.0957 s⁻¹ and the on-rate (kon) was found to be 161000 M⁻¹ s⁻¹.
B6: the affinity, expressed as Kd, was 32.6 nM; the “Response (nm)” value is 0.161 nm; the koff is 0.0121 s⁻¹; the kon was 371000 M⁻¹ s⁻¹.
For B7, in that order: 54.1 nM, 0.0947 nm, 0.0189 s⁻¹ and 349000 M⁻¹ s⁻¹.
On to B8, for which binding was characterised by a dissociation constant (Kd) of 34.1 nM, the “Response (nm)” value was 0.129 nm, the koff is 0.0156 s⁻¹ and the on-rate (kon) was 456000 M⁻¹ s⁻¹.
With B9, the dissociation constant Kd stood at 32.8 nM, the “Response (nm)” value was found to be 0.084 nm, the koff was 0.0166 s⁻¹ and the kon turned out to be 505000 M⁻¹ s⁻¹.

In the next assay the target is T3, hIL-18 receptor (hIL-18Rα and hIL-18Rβ) (human, UniProt Q13478 19-541; O95256 20-599).
T3 sequence (looked up) 1: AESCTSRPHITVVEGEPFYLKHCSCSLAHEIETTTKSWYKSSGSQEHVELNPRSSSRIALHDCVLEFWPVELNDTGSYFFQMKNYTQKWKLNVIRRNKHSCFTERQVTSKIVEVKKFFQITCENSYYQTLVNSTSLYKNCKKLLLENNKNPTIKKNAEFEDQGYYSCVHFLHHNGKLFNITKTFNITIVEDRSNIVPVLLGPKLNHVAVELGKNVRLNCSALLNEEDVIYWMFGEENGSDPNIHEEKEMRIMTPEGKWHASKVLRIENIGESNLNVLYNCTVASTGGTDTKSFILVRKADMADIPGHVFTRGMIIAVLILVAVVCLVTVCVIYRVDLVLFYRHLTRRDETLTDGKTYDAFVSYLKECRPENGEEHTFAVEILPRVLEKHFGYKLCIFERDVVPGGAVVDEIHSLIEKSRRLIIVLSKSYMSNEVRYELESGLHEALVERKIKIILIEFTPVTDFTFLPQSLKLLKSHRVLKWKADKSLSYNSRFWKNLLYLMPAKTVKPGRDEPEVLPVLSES
T3 sequence (looked up) 2: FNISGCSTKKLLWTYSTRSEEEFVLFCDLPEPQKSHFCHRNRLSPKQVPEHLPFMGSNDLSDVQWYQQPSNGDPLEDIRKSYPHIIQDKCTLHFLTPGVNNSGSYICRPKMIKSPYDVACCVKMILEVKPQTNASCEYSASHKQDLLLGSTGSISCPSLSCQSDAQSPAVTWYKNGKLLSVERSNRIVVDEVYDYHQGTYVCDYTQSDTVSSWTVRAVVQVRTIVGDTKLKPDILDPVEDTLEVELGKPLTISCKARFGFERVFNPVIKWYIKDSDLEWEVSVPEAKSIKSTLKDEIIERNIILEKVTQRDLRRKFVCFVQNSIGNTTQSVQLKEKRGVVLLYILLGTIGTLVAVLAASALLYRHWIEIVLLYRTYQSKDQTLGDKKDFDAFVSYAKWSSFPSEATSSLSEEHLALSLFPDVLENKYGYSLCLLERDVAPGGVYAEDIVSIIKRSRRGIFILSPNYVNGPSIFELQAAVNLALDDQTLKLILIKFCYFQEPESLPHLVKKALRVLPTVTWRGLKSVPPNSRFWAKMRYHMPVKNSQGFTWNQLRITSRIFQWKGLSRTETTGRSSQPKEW
Description: cell-based or functional assay.
For B10, the “EC50 (nM), hIL-18 reporter assay” value stood at 0.18 nM.
Turning to B11, the “EC50 (nM), hIL-18 reporter assay” value was found to be 0.12 nM.
With B12, the “EC50 (nM), hIL-18 reporter assay” value worked out at 0.57 nM.
Regarding B13, the “EC50 (nM), hIL-18 reporter assay” value turned out to be 0.052 nM.
Consider B14, for which the “EC50 (nM), hIL-18 reporter assay” value stood at 2.5 nM.
For B15, the “EC50 (nM), hIL-18 reporter assay” value was 0.11 nM.
Take B16: the “EC50 (nM), hIL-18 reporter assay” value worked out at 0.14 nM.
Regarding B17, the “EC50 (nM), hIL-18 reporter assay” value worked out at 0.018 nM.
With B18, the “EC50 (nM), hIL-18 reporter assay” value worked out at 0.71 nM.
Regarding B19, the “EC50 (nM), hIL-18 reporter assay” value was determined as 0.076 nM.
The same measure, in the same setting: for B20 the value was 0.3 nM; for B21, 0.25 nM.

The target of another assay is T4, hIL-18BP-hFc (human, UniProt O95998 31-194, limits assumed).
T4 sequence (looked up): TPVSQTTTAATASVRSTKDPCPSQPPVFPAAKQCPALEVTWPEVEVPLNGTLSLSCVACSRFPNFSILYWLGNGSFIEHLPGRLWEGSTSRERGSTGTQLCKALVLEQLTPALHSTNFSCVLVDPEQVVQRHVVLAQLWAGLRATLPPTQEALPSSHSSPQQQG
Description: cell-based or functional assay.
For B10, the “EC50 (nM) in the Presence of 1 µg/mL hIL-18BP-hFc, hIL-18 reporter assay” value (shortened to “EC50 (nM) in the Presence”) stood at 0.26 nM and the “EC50 Fold Change (+BP/-BP), hIL-18 reporter assay” value (“EC50 Fold Change (+BP/-BP)” for short) came out at 1.44 fold.
As to B11, the “EC50 (nM) in the Presence” value was 0.16 nM and the “EC50 Fold Change (+BP/-BP)” value came to 1.33 fold.
Regarding B12, the “EC50 (nM) in the Presence” value turned out to be 1.2 nM and the “EC50 Fold Change (+BP/-BP)” value worked out at 2.11 fold.
Take B13: the “EC50 (nM) in the Presence” value is 0.069 nM and the “EC50 Fold Change (+BP/-BP)” value was 1.33 fold.
For B14, in that order: 1.7 nM and 0.68 fold.
Regarding B15, the “EC50 (nM) in the Presence” value was 0.055 nM and the “EC50 Fold Change (+BP/-BP)” value was found to be 0.5 fold.
With B16, the “EC50 (nM) in the Presence” value is 0.33 nM and the “EC50 Fold Change (+BP/-BP)” value amounted to 2.36 fold.
Turning to B17, the “EC50 (nM) in the Presence” value amounted to 0.042 nM and the “EC50 Fold Change (+BP/-BP)” value is 2.33 fold.
B18: the “EC50 (nM) in the Presence” value amounted to 0.9 nM and the “EC50 Fold Change (+BP/-BP)” value was determined as 1.27 fold.
For B19, the “EC50 (nM) in the Presence” value is 0.11 nM and the “EC50 Fold Change (+BP/-BP)” value was 1.45 fold.
For B20, in that order: 0.44 nM and 1.47 fold.
In the case of B21, the “EC50 (nM) in the Presence” value came out at 0.18 nM and the “EC50 Fold Change (+BP/-BP)” value stood at 0.72 fold.
